Results from patent publication US20250290928A1, “METHOD, KIT AND DEVICE FOR DETECTING EXTRACELLULAR VESICLES” (priority 2022, published 2025).
No end group written: not given here. *: point of attachment. 5FAM = O=C1OC2(c3ccc(O)cc3Oc3cc(O)ccc32)c2ccc(C(=O)*)cc21; TQ2 = quencher; TQ3 = quencher

Biological target: T1, MMP14 in the MDA-MB-231-derived extracellular vesicles (Homo sapiens, UniProt P50281)
T1 construct: in terms of intact MMP14 with a molecular weight of 70 kDa
Assay: Digital detection through MMP14 activity of MDA-MB-231-derived extracellular vesicles captured on Tim4-immobilized magnetic particles
Type: biochemical
Description: Magnetic particles included in PS Capture (trademark) Exosome Flow Cytometry Kit (manufactured by FUJIFILM Corporation) were used as magnetic particles. In this kit, binding of an extracellular vesicle to a Tim4-immobilized magnetic particle is utilized.
800 μL of Exosome Capture Beads were aliquoted in a 1.5 mL microtube, vortexed for 5 seconds, spun down in a benchtop centrifuge, and then placed on a magnetic stand. After still standing for 1 minute, the supernatant was removed by pipetting. 1 mL of x1 WB (+Enhancer) prepared from x10 Washing Buffer and x100 Exosome Binding Enhancer included in the kit was added to the residue, the mixture was vortexed for 5 seconds, spun down in a benchtop centrifuge, and then placed on a magnetic stand. After still standing for 1 minute, the supernatant was removed by pipetting. This operation was repeated three times.
800 μL of the buffer (4) was added to the magnetic particle pellets, and the mixture was vortexed for 30 seconds to provide a homogeneous magnetic particle suspension. 60 μL of the suspension was aliquoted into each of twelve 1.5 mL microtubes.
The concentration of the solution is 4 μg/mL. […] Further, the concentration of the x1/5 solution was set to be the highest concentration, and 10-fold dilution was performed in four stages. Thus, 10-fold dilution samples in a total of five stages were obtained.
The magnetic particle suspension that had been aliquoted in each amount of 60 μL in the section “(Preparation of Particles)” was vortexed for 5 seconds, spun down in a benchtop centrifuge, and then placed on a magnetic stand. After still standing for 1 minute, the supernatant was removed by pipetting.
After that, the above-mentioned mixed solution was spun down in a benchtop centrifuge, then placed on a magnetic stand, and left to stand still for 1 minute. After that, the supernatant was removed by pipetting, 300 μL of the buffer (4) was added to the residue, and the mixture was vortexed for 5 seconds. The mixture was spun down in a benchtop centrifuge, then placed on a magnetic stand, and left to stand still for 1 minute. The same operation was further repeated twice.
For detection of MMP14 activity, 1 mM Custom #1 and Custom #2 were diluted with the buffer (4) to prepare MMP14 detection solutions containing 5 μM Custom #1 and Custom #2, respectively.
The supernatant of the mixed solution of the magnetic particles and the extracellular vesicles subjected to the washing was removed by pipetting, and 60 μL of each of the MMP14 detection solutions was added to each of the magnetic particle pellets to prepare a reaction solution for wells.
Magnosphere (trademark) MS300/Streptavidin (manufactured by JSR Corporation) (hereinafter abbreviated as “MS300S”) was used as magnetic particles. The magnetic particles were modified with Tim4 through use of Biotin-labeled Exosome Capture included in MagCapture (trademark) Exosome Isolation Kit PS Ver. 2 (manufactured by FUJIFILM Corporation) (hereinafter abbreviated as “PS2”) to prepare Tim4-immobilized magnetic particles.
10 μL of Biotin-labeled Exosome Capture was added to the suspension, and the mixture was vortexed for 5 seconds so that the contents were mixed. The mixture was subjected to a reaction for 10 minutes while the contents were mixed by inversion at room temperature with a rotator. After that, the resultant was spun down in a benchtop centrifuge, and then placed on a magnetic stand. After still standing for 1 minute, the supernatant was removed by pipetting. 500 μL of x1 I/WB (±Enhancer) was added to the residue, and the mixture was vortexed for 5 seconds, spun down in a benchtop centrifuge, and then placed on a magnetic stand. After still standing for 1 minute, the supernatant was removed by pipetting. This operation was further repeated twice. […]

[1] = Table 56, Particle MS300C, MB231 Present, 24 hours at 23° C.
[2] = Table 56, Particle Simoa, MB231 Present, 24 hours at 23° C.
[3] = Example 50, MS300S Tim4 particles, 30° C., 4 h
[4] = Table 52, particles modified with Tim4, MB231 concentration x1/5, 4 hr
[5] = Table 52, particles modified with Tim4, MB231 concentration x1/50, 4 hr
[6] = Table 52, particles modified with Tim4, MB231 concentration x1/500, 4 hr
[7] = Table 52, particles modified with Tim4, MB231 concentration x1/5,000, 4 hr
[8] = Table 52, particles modified with Tim4, MB231 concentration x1/50,000, 4 hr
[9] = Table 53, BG subtracted, MB231 concentration x1/5, 4 hr
[10] = Table 53, BG subtracted, MB231 concentration x1/50, 4 hr
[11] = Table 53, BG subtracted, MB231 concentration x1/500, 4 hr
[12] = Table 53, BG subtracted, MB231 concentration x1/5,000, 4 hr
[13] = Table 53, BG subtracted, MB231 concentration x1/50,000, 4 hr
[14] = Table 54, particles immobilized with Tim4, MB231 concentration x1/5, 4 hr
[15] = Table 54, particles immobilized with Tim4, MB231 concentration x1/25, 4 hr
[16] = Table 54, particles immobilized with Tim4, MB231 concentration x1/125, 4 hr
[17] = Table 54, particles immobilized with Tim4, MB231 concentration x1/625, 4 hr
[18] = Table 54, particles immobilized with Tim4, MB231 concentration x1/3,125, 4 hr
[19] = Table 54, particles immobilized with Tim4, MB231 concentration x1/15,625, 4 hr
[20] = Table 54, particles immobilized with Tim4, MB231 concentration x1, 4 hr
[21] = Table 55, BG subtracted, MB231 concentration x1/5, 4 hr
[22] = Table 55, BG subtracted, MB231 concentration x1/25, 4 hr
[23] = Table 55, BG subtracted, MB231 concentration x1/125, 4 hr
[24] = Table 55, BG subtracted, MB231 concentration x1/625, 4 hr
[25] = Table 55, BG subtracted, MB231 concentration x1/3,125, 4 hr
[26] = Table 55, BG subtracted, MB231 concentration x1/15,625, 4 hr
[27] = Table 55, BG subtracted, MB231 concentration x1, 4 hr

## TAMRA-GGPLGLAGGK(TQ3) ({TAMRA}-GGPLGLAGGK(TQ3)) [Custom #2T]
[1]
  Particle Expected value λ: 0.2937
  Particle Positive ratio: 0.2545
[2]
  Particle Expected value λ: 0.07748
  Particle Positive ratio: 0.07456

## [5-FAM]GGPLGLAGGK(TQ2)[OH] (5FAM-GGPLGLAGGK(TQ2)-OH) [Custom #2]
Example 49, PS Capture Tim4 particles, 30° C., 4 h
  number of the extracellular vesicles: 1.18×10^5 /μg of protein
Example 50, 6×10^5 particles, 2 μg of protein
  number of the extracellular vesicles: 1.77×10^5
[3]
  expected value Δλ per particle (value obtained by subtracting BG) at a concentration of x1: 0.2953
  number of the extracellular vesicles: 8.86×10^4 /μg of protein
[4]
  Particle Expected value λ: 0.2744
  Particle Number of positives: 557
  Particle Positive ratio: 0.24
[5]
  Particle Expected value λ: 0.09639
  Particle Number of positives: 246
  Particle Positive ratio: 0.09189
[6]
  Particle Expected value λ: 0.03784
  Particle Number of positives: 181
  Particle Positive ratio: 0.03714
[7]
  Particle Expected value λ: 0.01211
  Particle Number of positives: 37
  Particle Positive ratio: 0.01204
[8]
  Particle Expected value λ: 0.00551
  Particle Number of positives: 17
  Particle Positive ratio: 0.00549
[9]
  Particle Expected value Δλ: 0.2716
  Particle Δ Number of positives: 552
  Particle Δ Positive ratio: 0.2378
[10]
  Particle Expected value Δλ: 0.09434
  Particle Δ Number of positives: 241
  Particle Δ Positive ratio: 0.09003
[11]
  Particle Expected value Δλ: 0.03678
  Particle Δ Number of positives: 176
  Particle Δ Positive ratio: 0.03611
[12]
  Particle Expected value Δλ: 0.01047
  Particle Δ Number of positives: 32
  Particle Δ Positive ratio: 0.01041
[13]
  Particle Expected value Δλ: 0.00388
  Particle Δ Number of positives: 12
  Particle Δ Positive ratio: 0.00388
[14]
  Particle Expected value λ: 0.1892
  Particle Number of positives: 1,235
  Particle Positive ratio: 0.1723
[15]
  Particle Expected value λ: 0.1044
  Particle Number of positives: 643
  Particle Positive ratio: 0.09911
[16]
  Particle Expected value λ: 0.06097
  Particle Number of positives: 385
  Particle Positive ratio: 0.05915
[17]
  Particle Expected value λ: 0.03309
  Particle Number of positives: 225
  Particle Positive ratio: 0.03255
[18]
  Particle Expected value λ: 0.02229
  Particle Number of positives: 166
  Particle Positive ratio: 0.02204
[19]
  Particle Expected value λ: 0.01639
  Particle Number of positives: 88
  Particle Positive ratio: 0.01625
[20]
  Particle Expected value λ: 0.2912
  Particle Number of positives: 1,744
  Particle Positive ratio: 0.2526
[21]
  Particle Expected value Δλ: 0.1853
  Particle Δ Number of positives: 1,212
  Particle Δ Positive ratio: 0.1691
[22]
  Particle Expected value Δλ: 0.1004
  Particle Δ Number of positives: 620
  Particle Δ Positive ratio: 0.09556
[23]
  Particle Expected value Δλ: 0.05722
  Particle Δ Number of positives: 362
  Particle Δ Positive ratio: 0.05562
[24]
  Particle Expected value Δλ: 0.02966
  Particle Δ Number of positives: 202
  Particle Δ Positive ratio: 0.02922
[25]
  Particle Expected value Δλ: 0.01917
  Particle Δ Number of positives: 143
  Particle Δ Positive ratio: 0.01899
[26]
  Particle Expected value Δλ: 0.01208
  Particle Δ Number of positives: 65
  Particle Δ Positive ratio: 0.01201
[27]
  Particle Expected value Δλ: 0.2868
  Particle Δ Number of positives: 1,721
  Particle Δ Positive ratio: 0.2493
[1]
  Particle Expected value λ: 0.2899
  Particle Positive ratio: 0.2517
[2]
  Particle Expected value λ: 0.3046
  Particle Positive ratio: 0.2626
